# Measurements published in the nanobody polyreactivity screen of Harvey et al. (2022).
# Assay: yeast display, Sf9 membrane polyspecificity reagent, FACS + sequencing; frameworks hold sequencing errors
# Outline: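 A synthetic nanobody library was expressed on Saccharomyces cerevisiae BJ5465 by galactose induction for 36–48 hours. The library was stained for 1 hour at 4 °C with 10% biotinylated, detergent-solubilized Sf9 membrane reagent and enriched with streptavidin microbeads before FACS. Low and high (top ~1%) gates were set on anti-HA fluorescence for expression and streptavidin fluorescence for reagent binding, and each polyreactivity label reflects the gate of origin.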
row,Sequence,polyreactivity (PSR sort gate)
1,QVQLVESGGGLVQAGGSLRLSCAASGRIFTNAMGWYRQAPGKERELVAAISGGSNTYYADSVKGRFTISRDNAKNTVYLQMNSLKPEDTAVYYCNTDDLWWDGGYDYWGQGTQVTVSS,low polyreactivity
2,QVQLVESGGGLVQAGGSLRLSCAASGRIFTPNAMGWSRQAPGKERELVAAITWSGDNTYADSVKGRFTISRDNAKNTVYLQMNSLKPEDTAVYYCAAAYGYGHKKYGYWGQGTQVTVSS,low polyreactivity
3,QVQLVESGGGLVQAGGSLRLSCAASGRIFTPYPMGWYRQAPGKERELVAVIRDGSTYYADSVKGRFTISRDNAKNSVYLQMNSLKPEDSAVYYCRYDIWVWWSGAYDYWGQGTQVTVSS,low polyreactivity
4,QVQLVESGGGLVQAGGSLRLSCAASGRIFTPYVLGWYRQAPGKERELVARISWTGSSTYYADSVKGRFTISRDNAKNTVYLQMNSLKPEDTAVYYCAKRLTRFYTRLEYWGQGTQVTVSS,low polyreactivity
5,QVQLVESGGGLVQAGGSLRLSCAASGRIFTPYVMGWYRQAPGKERELVARISWTGSSTYYADSVKGRFTISRDNAKNTVYLQMNSLKPEDTAVYYCAKRLTRFYTRLEYWGQGTQVTVSS,low polyreactivity
6,QVQLVESGGGLVQAGGSLRLSCAASGRIFTQYAMGWYRQAPGKERELVAAINASDGSTYADSVKGRFTISRDNAKNTVYLQMNSLKPEDSAVYFCYVTGGPYDFTRWSEFDHWGQGTQVTVSS,low polyreactivity
7,QVQLVESGGGLVQAGGSLRLSCAASGRIFTRNAMGWYRQAPGKERELVAAIRWSGDSTYYADSVKGRFTISRDNAKNTVYLQMNSLKPEDTAVYYCAAYRQRSHRVGTKGHRVGYWGQVTQVTVSS,high polyreactivity
8,QVQLVESGGGLVQAGGSLRLSCAASGRIFTRNAMGWYRQAPGKERQLVAAISHSGGSTYADSVKGRFTISRDNAKNTVYLQMNSLKPEDTAVYYCAADSPYGYYEGDYCGQGTQVTVSS,low polyreactivity
9,QVQLVESGGGLVQAGGSLRLSCAASGRIFTRSAMGWYRQAPGKERELVAVITRSGGSTYYADSVKGRFTISRDNAKKTVYLQMNSLKPEDTAVYYCAAKYYGEMYYWGQGTQVTVSS,low polyreactivity
10,QVQLVESGGGLVQAGGSLRLSCAASGRIFTRYAIGWYRQAPGKERELVAAITYNGGSTYYADSVKGRFTISRDNAKNTVYLQMNSLKPEDTAVYDCNAVYLSWFGLFAGFDYWGQGTQVTVSS,high polyreactivity
11,QVQLVESGGGLVQAGGSLRLSCAASGRIFTRYAMGWYRQAPGKERELVAAINYRGSSTYYADSVKGRFTISRDNAKKTVYLQMNSLTPEDTAVYYCNTYGQTDTYWRYYYWGQGTQVTVSS,high polyreactivity
12,QVQLVESGGGLVQAGGSLRLSCAASGRIFTRYAMGWYRQAPGKERELVDGITSRGGSTYYADSVKGRYTISRDNAKNTVYLQMNSLKPEDTAVYYCNKRYTGENDYWGQGTQVTVSS,high polyreactivity
13,QVQLVESGGGLVQAGGSLRLSCAASGRIFTSNAMGWYRQAPGKEREFVAAITKRGGRTYYADSVKGRFTISRDNAKNTVYLQMNSLKPEDTAVYYCAAGATGTSYYGGDYWGQGTQVTVSS,high polyreactivity
14,QVQLVESGGGLVQAGGSLRLSCAASGRIFTTYAMGWYRPAPGKERELVAANTSGGRTNYADSVKGRFTISRDNAKNTVYLQMNSLKPEDTAVYYCAADGGVRRLTGLLYSFDYWGQGTQVTVSS,low polyreactivity
15,QVQLVESGGGLVQAGGSLRLSCAASGRIFTTYAMGWYRQAPGKEREFVAAINYSGGRTYYAESVKGRFTISRDNAKNTVYLQMISLKPEETAVYYCAARSLFRGDYWGQGTQVTVSS,high polyreactivity
16,QVQLVESGGGLVQAGGSLRLSCAASGRIFTTYAMGWYRQEPGKERELVAAISQNGGSTYYADSVKGRFTISRDNAKNTVYLQMNTLKPEDTAVYYCAAADYYGIRDLYASDGTHYYSWGQGTQVTVSS,low polyreactivity
17,QVQLVESGGGLVQAGGSLRLSCAASGRIFTWKGMGWYRQAPGKERELVARISSGTRTNYADSVKGRFTISRDNAKNTVYLQMNCLKPEDTAVYYFAAAAKRSDAYHNRRYYWGQGTQVTVSS,high polyreactivity
18,QVQLVESGGGLVQAGGSLRLSCAASGRIFTWYGMGWYSQAPGKERELVARITQRGGTTYYADSVKGRFTISRDNAKNTVYLQINSLKPEDTAFYYCATQYTYTGRRYYSYVDGSRYYYWGQGTQVTVSS,high polyreactivity
19,QVQLVESGGGLVQAGGSLRLSCAASGRIFTWYTMGWYRQAPGKERELVAAINRGGSTTYADSVKGRFTISRDNAKNTVYLQMNSLKPEDTAVYSCAAYRYTSRVYSYWRGYDYWGQGTQVTVSS,high polyreactivity
20,QVQLVESGGGLVQAGGSLRLSCAASGRIFTYNAMGWYRQAPGKERELDATITWRGGGTYYADSVKGRFTISRDNAKNTVYLQMNSLKPEDTAVYYCNRRLPGDGQYGYRRYDYWGQGTQVTVSS,low polyreactivity
21,QVQLVESGGGLVQAGGSLRLSCAASGRIFTYNAMGWYRQAPGKERELVAASSRRGGTTYYADSVKGRFTISRDIAKITVYLQMNSLKPEDTAVYYCAARGQYRYSFGDYSWGQGTQVTVSS,high polyreactivity
22,QVQLVESGGGLVQAGGSLRLSCAASGRIFTYNVMGWYRQAPGKERELVAAIYSSGVRTSYADSVKGRFTISRDNAKNTVYLHMNSLKPEDTALYYCAADKRYHYGLLHDPSYYYDYWGQGTQVTVSS,low polyreactivity

row,Sequence,polyreactivity (PSR sort gate)
1,QVQLVESGGGLVQAGGSLRLSCAASGRIFVANAMGWYRKAPGTERELVAAISRRGGRTYYADSVKGRFTISRDNAKNTVYLQMNSLKPEDTAVYYCAAIRSVTRFPRRYDYWGQGTPVTVSS,high polyreactivity
2,QVQLVESGGGLVQAGGSLRLSCAASGRIFVANAMGWYRQAPGKERELVAVISGSGGRTYYADSVKGRFTISRDNAKNTVYLQMNSLKPEDTAVYYCAAQKWQQGITAYEYWGQGTQVTVSS,high polyreactivity
3,QVQLVESGGGLVQAGGSLRLSCAASGRIFVAYAMGWYRQAPGKERELVAAITWSGTSTYADSVKGRFTISRDNAKNTVYLQMNSLKPEDTAVYYCAKKAIVSDQWDKYDYWGQGTQVTVSS,low polyreactivity
4,QVQLVESGGGLVQAGGSLRLSCAASGRIFVAYAMGWYRQAPGKQRELVADIDYIDGSTYYADSVKGRFTISRDNAKNTVYLQMNSLKPEDTAVYYCAVDSLYYAGYYDYWGQGTQVTVSS,high polyreactivity
5,QVQLVESGGGLVQAGGSLRLSCAASGRIFVDNAMGWYRQAPGKERELVATITSTGSTNYADSVKGRFTISRDNAKYTVYLQMNSLKPEDTAVYYCNADGKLQDYDYWGQGTQVTVSS,high polyreactivity
6,QVQLVESGGGLVQAGGSLRLSCAASGRIFVFNAMGWYRQAPGKERELVAAISRRGGSTYYADSVKGRFTISRDNAKNTVYLQMNSLKPEVTAVYYCAAVYPDYSSARYDYWGQGTQVTVSS,high polyreactivity
7,QVQLVESGGGLVQAGGSLRLSCAASGRIFVFYAMGWYRQAPGKERELVAAISKSVGPTYYADSVKGRFTISRDTAKNTVYLQMNSLKPADTAGYYCNKRSASDLWPQYGYWGQGTQVTVSS,low polyreactivity
8,QVQLVESGGGLVQAGGSLRLSCAASGRIFVFYAMGWYRQAPGKVREFVATISYSGDTTYYADSVKGRFTISRDNAKNTVYLEMNSLKPEDTAVYYCAADQVPSYYYVPLGYDSWGQGTQVTVSS,low polyreactivity
9,QVQLVESGGGLVQAGGSLRLSCAASGRIFVGDAMGWYRQAPGTERELVAAISRDGDNTFYADSVKGRFTISRDNAKNTVYLQMNSLKPEDTAVYYCAVDYWVWYGSAYAYDYYWGQGTQVTVSS,low polyreactivity
10,QVQLVESGGGLVQAGGSLRLSCAASGRIFVGNAMGWYRQAPGKERELVAAISRSGGRTYYADSVKGRFTISRDNAKNSVYLQMNSLKPEDTAVYYCAAVSLSGRYGDYDYWGQGTQVTVSS,high polyreactivity
11,QVQLVESGGGLVQAGGSLRLSCAASGRIFVGYAMGWYRQAPGKERELVAAISARGGSTYYADSVKGRFTISRDNAKNTVYLQMNSLKPEDTAVYYCAADEASSRGYYDYDYWGQGTQVTVSS,low polyreactivity
12,QVQLVESGGGLVQAGGSLRLSCAASGRIFVGYAMGWYRQAPGKERELVAAISRSGARTYYADSVKGRFTISRAIAKNTVYLQMNSLKPVDTAVYYCNTVKVLIYSWGQGTQVTVSS,high polyreactivity
13,QVQLVESGGGLVQAGGSLRLSCAASGRIFVGYAMGWYRQAPGKERELVAAITGSGGGTYYADSVKGRFTISRDNAKNTVYLQMNSLKPEDTAVYYCNARYRSYYVTQRLDYWGQGTQVTVSS,high polyreactivity
14,QVQLVESGGGLVQAGGSLRLSCAASGRIFVGYTMGWYRQAPGKERELVAAITSGGSTYYADSVKGRFTISRDNAKNTVYLQMNSLNPEDTADYYCNAAYQFDSYHLGGNRYEYWGQGTQETVSS,low polyreactivity
15,QVQLVESGGGLVQAGGSLRLSCAASGRIFVINAMGLYRQAPGKERELVADITWSGGSTYADSVKGRFTISRDTAKNTVYLQLNSLKPEDTAVYYCAAVYLRVDRYLQVYRYDYWGQGTQVTVSS,high polyreactivity
16,QVQLVESGGGLVQAGGSLRLSCAASGRIFVKNAMGWYRQAPGKERELVAAISSSSGSTYYADSVKGRFTISRDNAKNTVYLQMNSLKPEDTAVYYCATVRWYYSRPRPTTAYGYWGQGTQVTVSS,high polyreactivity
17,QVQLVESGGGLVQAGGSLRLSCAASGRIFVLNAMGWYRQAPGKERELVAAITFSGGRTYYADSVKGRFTISRDNAKNTVYLQMNSLKPEDTAVYYCATRQDWRRTYGYWGQGTQVTVSS,low polyreactivity
18,QVQLVESGGGLVQAGGSLRLSCAASGRIFVNNAMGWSRQAPGKERELVAAISKRGGSTYYADSVKGRFTISRDNAKNSVYLQMNSLKPEDTAVYYCAATPVYSGPYDYWGQGTQVTVSS,high polyreactivity
19,QVQLVESGGGLVQAGGSLRLSCAASGRIFVNYAMGWYRQAPGKERELVAAITSDGSTSYADSVKGRFTISRDNAKNTVYLQMNSLKPEDTAVYYCAKDFFEHSPVSHTYSSSNYDYWGQGTQVTVSS,low polyreactivity
20,QVQLVESGGGLVQAGGSLRLSCAASGRIFVPNAMGWYSQAPGKERELVAAINWGGGSTYYADSVKGRFTISRDNAKNTVYLQMNSLKPEDTAVYYCAADHPYTIGVLPNQQFDYWGQGTQVTVSS,low polyreactivity
21,QVQLVESGGGLVQAGGSLRLSCAASGRIFVPYLMGWYRQAPGKERELVASISDSDTSTYYADSVKGRFTISRDNAKNTVYLQMNCLKPEDTAVYYCNVDYWGQGTQVTVSS,low polyreactivity
